Test results taken from publication PMC5843802, “DATATOC: a novel conjugate for kit-type ^68Ga labelling of TOC at ambient temperature” (EJNMMI Radiopharmacy and Chemistry, 2016).

Type: physicochemical
Protocol: The lipophilicity was determined using the shake-flask method (logP) and qualitatively by radio-HPLC relative to ^68Ga-DOTATOC (Notni et al. [2013]; Du et al. [1998]). Radiolabels were prepared following acetone-PP. Analytical radio-HPLC (LiChrospher 100-RP-18EC, 1 mL/min) for lipophilicity studies was based on a gradient using H2O (A) and MeCN (B), each containing 0.1 % TFA. Mobile phase gradient: 0–1.5 min 1 % B, 1.5–10.5 min 99 % B, 11.5 min 99 % B, 12–15 min 1 % B. The HPLC was coupled to a UV (Hitachi L-7400) and a radioactivity (Gamma Raytest) detection system. HPLC grade solvents were used and degassed by sonication for 15–20 min prior to use.

For `C[C@@H](O)[C@@H]1NC(=O)[C@H](CCCCN)NC(=O)[C@@H](Cc2c[nH]c3ccccc23)NC(=O)[C@H](Cc2ccc(O)cc2)NC(=O)[C@@H](NC(=O)[C@@H](Cc2ccccc2)NC(=O)CN2CCN(CC(=O)O)CCN(CC(=O)O)CCN(CC(=O)O)CC2)CSSC[C@@H](C(=O)N[C@H](CO)[C@@H](C)O)NC1=O` [^68Ga-DOTATOC, metal not drawn], the “radio-HPLC retention time (tR) as measure of lipophilicity” value was 10.3 min.
